Results from paper PMC10518340, “Secreted LRPAP1 binds and triggers IFNAR1 degradation to facilitate virus evasion from cellular innate immunity” (Signal Transduction and Targeted Therapy, 2023).

B1: lactoferrin (protein, UniProt P02788 20-710, looked up)
Lactotransferrin: GRRRSVQWCAVSQPEATKCFQWQRNMRKVRGPPVSCIKRDSPIQCIQAIAENRADAVTLDGGFIYEAGLAPYKLRPVAAEVYGTERQPRTHYYAVAVVKKGGSFQLNELQGLKSCHTGLRRTAGWNVPIGTLRPFLNWTGPPEPIEAAVARFFSASCVPGADKGQFPNLCRLCAGTGENKCAFSSQEPYFSYSGAFKCLRDGAGDVAFIRESTVFEDLSDEAERDEYELLCPDNTRKPVDKFKDCHLARVPSHAVVARSVNGKEDAIWNLLRQAQEKFGKDKSPKFQLFGSPSGQKDLLFKDSAIGFSRVPPRIDSGLYLGSGYFTAIQNLRKSEEEVAARRARVVWCAVGEQELRKCNQWSGLSEGSVTCSSASTTEDCIALVLKGEADAMSLDGGYVYTAGKCGLVPVLAENYKSQQSSDPDPNCVDRPVEGYLAVAVVRRSDTSLTWNSVKGKKSCHTAVDRTAGWNIPMGLLFNQTGSCKFDEYFSQSCAPGSDPRSNLCALCIGDEQGENKCVPNSNERYYGYTGAFRCLAENAGDVAFVKDVTVLQNTDGNNNEAWAKDLKLADFALLCLDGKRKPVTEARSCHLAMAPNHAVVSRMDKVERLKQVLLHQQAKFGRNGSDCPDKFCLFQSETKNLLFNDNTECLARLHGKTTYEKYLGPQYVAGITNLKKCSTSPLLEACEFLRK
B2: alpha-2-macroglobulin (protein, UniProt P01023 24-1474, looked up)
Alpha-2-macroglobulin: SVSGKPQYMVLVPSLLHTETTEKGCVLLSYLNETVTVSASLESVRGNRSLFTDLEAENDVLHCVAFAVPKSSSNEEVMFLTVQVKGPTQEFKKRTTVMVKNEDSLVFVQTDKSIYKPGQTVKFRVVSMDENFHPLNELIPLVYIQDPKGNRIAQWQSFQLEGGLKQFSFPLSSEPFQGSYKVVVQKKSGGRTEHPFTVEEFVLPKFEVQVTVPKIITILEEEMNVSVCGLYTYGKPVPGHVTVSICRKYSDASDCHGEDSQAFCEKFSGQLNSHGCFYQQVKTKVFQLKRKEYEMKLHTEAQIQEEGTVVELTGRQSSEITRTITKLSFVKVDSHFRQGIPFFGQVRLVDGKGVPIPNKVIFIRGNEANYYSNATTDEHGLVQFSINTTNVMGTSLTVRVNYKDRSPCYGYQWVSEEHEEAHHTAYLVFSPSKSFVHLEPMSHELPCGHTQTVQAHYILNGGTLLGLKKLSFYYLIMAKGGIVRTGTHGLLVKQEDMKGHFSISIPVKSDIAPVARLLIYAVLPTGDVIGDSAKYDVENCLANKVDLSFSPSQSLPASHAHLRVTAAPQSVCALRAVDQSVLLMKPDAELSASSVYNLLPEKDLTGFPGPLNDQDNEDCINRHNVYINGITYTPVSSTNEKDMYSFLEDMGLKAFTNSKIRKPKMCPQLQQYEMHGPEGLRVGFYESDVMGRGHARLVHVEEPHTETVRKYFPETWIWDLVVVNSAGVAEVGVTVPDTITEWKAGAFCLSEDAGLGISSTASLRAFQPFFVELTMPYSVIRGEAFTLKATVLNYLPKCIRVSVQLEASPAFLAVPVEKEQAPHCICANGRQTVSWAVTPKSLGNVNFTVSAEALESQELCGTEVPSVPEHGRKDTVIKPLLVEPEGLEKETTFNSLLCPSGGEVSEELSLKLPPNVVEESARASVSVLGDILGSAMQNTQNLLQMPYGCGEQNMVLFAPNIYVLDYLNETQQLTPEIKSKAIGYLNTGYQRQLNYKHYDGSYSTFGERYGRNQGNTWLTAFVLKTFAQARAYIFIDEAHITQALIWLSQRQKDNGCFRSSGSLLNNAIKGGVEDEVTLSAYITIALLEIPLTVTHPVVRNALFCLESAWKTAQEGDHGSHVYTKALLAYAFALAGNQDKRKEVLKSLNEEAVKKDNSVHWERPQKPKAPVGHFYEPQAPSAEVEMTSYVLLAYLTAQPAPTSEDLTSATNIVKWITKQQNAQGGFSSTQDTVVALHALSKYGAATFTRTGKAAQVTIQSSGTFSSKFQVDNNNRLLLQQVSLPELPGEYSMKVTGEGCVYLQTSLKYNILPEKEEFPFALGVQTLPQTCDEPKAHTSFQISLSVSYTGSRSASNMAIVDVKMVSGFIPLKPTVKMLERSNHVSRTEVSSNHVLIYLDKVSNQTLSLFFTVLQDVPVRDLKPAIVKVYDYYETDEFAIAEYNAPCSKDLGNA

Assays:
IFNAR1 [1] = test: IFNAR1 protein level, immunoblot / immunofluorescence, RD cells; format: cell-based; settings: EV71 or HSV-1 MOI 10; α2M 20 nM, LF 400 nM
IFNAR1 [2] = test: IFNAR1 protein level, HepAD38 cells, immunoblot; format: cell-based; settings: siRNA or overexpression 48 h; LF 400 nM 24 h
IFNAR1 [3] = test: IFNAR1 protein level, immunoblot, HEK-293T cells; format: cell-based, human; settings: HEK-293T, rLRPAP1 200 nM, α2M 20 nM, 1 h
HCoV-OC43 = HCoV-OC43 infection of RD cells (viral RNA, TCID50, CPE); settings: α2M 20 nM pre-treatment 1 h, MOI 1, 72 h
HSV-1 = HSV-1 infection of RD cells (viral DNA, TCID50, viral protein, CPE); settings: α2M 20 nM, added 3 h post infection MOI 10, 21 h
EV71 = EV71 infection of RD cells (viral RNA, titer, viral protein, CPE); settings: α2M 20 nM, added 3 h post infection MOI 10, 6 h
DNA and RNA viruses = test: Antiviral effect against DNA and RNA viruses (summary); format: cell-based; settings: dosages within the biosafety range (<1.5 mg/100 ml)
Protocol: Fig. 6 Inhibition of extracellular LRPAP1 reinforces the host cell’s innate immunity against multiple viruses’ infection. a–c RD cells were transfected with scramble siRNA or siLRPAP1 for 24 h. Then the cells were infected with HCoV-OC43 at an MOI of 1 for 72 h or HSV-1 at the indicated MOI for 24 h. Viral RNA level of HCoV-OC43 was analysed by RT-qPCR (a). Viral titer of HCoV-OC43 was measured by TCID50 assay (b). The relative viral DNA level of HSV-1 was analysed by RT-qPCR (c). d Immunoblots of lysates in HepAD38 cells transfected with scramble siRNA or siLRPAP1 for 48 h. e RD cells were transfected with scramble siRNA or siLRPAP1-1/-2 (si-1, si-2) for 24 h. Then the cells were infected with ZIKV at an MOI of 1 for 24 h. Viral RNA level of ZIKV was analysed by RT-qPCR. f, g The inhibitory effect of anti-LRPAP1 for HSV-1 infection. […] Densitometric analysis of VP1 levels in Fig. 6(i) was quantified and normalized with GAPDH using ImageJ (j). Densitometric analysis of HSV Envelope levels in Fig. 6(k) was quantified and normalized with GAPDH using ImageJ (l). m The schematic diagram of virus circumventing type I IFN signaling through LRPAP1.
a, The effect of siLRPAP1 on the infection of HCoV-OC43. […] Viral RNA level of HCoV-OC43 was analysed by RT-qPCR. b, RD cells were transfected with scramble siRNA or siLRPAP1 for 24 h, and cells were then inoculated with HCoV-OC43 at an MOI of 1 for 72 h. […]

HBV = HBV level in HepAD38 cells, immunoblot; format: cell-based; settings: α2M 20 nM, 24 h

Molecule | IFNAR1 level under viral infections (IFNAR1 [1]) | IFNAR1 expression in HepAD38 cells (IFNAR1 [2]) | IFNAR1 level in cells treated with rLRPAP1 (IFNAR1 [3]) | HCoV-OC43 propagation (HCoV-OC43) | HSV-1 propagation (Envelope) (HSV-1) | EV71 propagation (VP1) (EV71) | antiviral effect (DNA and RNA viruses) | HBV propagation (HBc) (HBV)
B1 | but not LF | but not LF | – | – | – | – | – | –
B2 | markedly upregulated IFNAR1 | – | markedly upregulated IFNAR1 | significantly inhibited both DNA and RNA virus propagation | significantly inhibited both DNA and RNA virus propagation | significantly inhibited both DNA and RNA virus propagation | promising antiviral effects | significantly inhibited both DNA and RNA virus propagation
